# From publication PMC6555819, “Comprehensive study of nuclear receptor DNA binding provides a revised framework for understanding receptor specificity”
# Molecular target: PPARg:RXRa (Homo sapiens, UniProt P37231;P19793 full;full)
# Test: no ligand; PBM; 180 nM : 90 nM RXRa; PBS pH 7.4, 2% milk, 0.02% Triton X-100, 1 mM DTT, BSA, 0.4 mg/ml salmon testes DNA
# Details: tags: His kept;His cleaved; copies: 1;1; label: surface-attached array probe
# Chain of PPARg:RXRa (P37231 29-505, chain 1 of 2): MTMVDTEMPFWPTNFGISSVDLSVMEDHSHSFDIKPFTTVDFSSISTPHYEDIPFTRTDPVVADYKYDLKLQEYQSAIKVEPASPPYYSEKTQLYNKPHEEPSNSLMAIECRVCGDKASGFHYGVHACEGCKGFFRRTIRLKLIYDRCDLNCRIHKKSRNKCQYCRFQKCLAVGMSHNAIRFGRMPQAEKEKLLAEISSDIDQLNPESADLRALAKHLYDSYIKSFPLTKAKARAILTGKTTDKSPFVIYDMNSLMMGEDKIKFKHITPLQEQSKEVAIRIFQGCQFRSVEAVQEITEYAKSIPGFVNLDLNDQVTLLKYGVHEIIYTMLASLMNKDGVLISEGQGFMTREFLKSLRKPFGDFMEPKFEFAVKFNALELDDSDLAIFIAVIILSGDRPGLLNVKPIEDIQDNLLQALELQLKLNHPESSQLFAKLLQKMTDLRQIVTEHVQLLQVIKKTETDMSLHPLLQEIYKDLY
# Chain of PPARg:RXRa (P19793 whole entry, chain 2 of 2): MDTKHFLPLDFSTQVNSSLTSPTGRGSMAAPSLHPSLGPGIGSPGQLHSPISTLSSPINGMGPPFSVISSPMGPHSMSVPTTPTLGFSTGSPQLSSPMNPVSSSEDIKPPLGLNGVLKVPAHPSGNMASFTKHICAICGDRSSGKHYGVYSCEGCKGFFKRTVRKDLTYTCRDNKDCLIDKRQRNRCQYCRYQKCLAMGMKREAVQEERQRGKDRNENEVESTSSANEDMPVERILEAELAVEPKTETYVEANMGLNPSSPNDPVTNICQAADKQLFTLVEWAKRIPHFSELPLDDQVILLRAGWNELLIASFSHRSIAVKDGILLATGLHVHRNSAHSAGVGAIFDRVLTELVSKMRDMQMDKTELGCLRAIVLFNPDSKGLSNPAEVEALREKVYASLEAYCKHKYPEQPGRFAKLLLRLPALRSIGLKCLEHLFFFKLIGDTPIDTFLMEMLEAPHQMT
row,Binder,binding signal
1,NRC3_wobSeed40_DR1_A21T_o1 (dsDNA) DNA 1: GCTAGCCTAGGTCATGGGCCTGTATACCACGCGAACGCGATTGACAGCGTAGAATGAAGG DNA 2: CCTTCATTCTACGCTGTCAATCGCGTTCGCGTGGTATACAGGCCCATGACCTAGGCTAGC,3.23 PBM z-score against 500 random probes
2,NRC3_wobSeed4_DR0_T22A_o1 (dsDNA) DNA 1: GCCCTACTGGGCCAAGGTCATAGATCAGTCAAAGCAGCGATTGACAGCGTAGAATGAAGG DNA 2: CCTTCATTCTACGCTGTCAATCGCTGCTTTGACTGATCTATGACCTTGGCCCAGTAGGGC,4.36 PBM z-score against 500 random probes
3,NRC3_wobSeed22_DR0_T22G_o1 (dsDNA) DNA 1: GCTTACCAAGGTGAAGGTCGTGGATCCCTCTGTAGAGCGATTGACAGCGTAGAATGAAGG DNA 2: CCTTCATTCTACGCTGTCAATCGCTCTACAGAGGGATCCACGACCTTCACCTTGGTAAGC,3.58 PBM z-score against 500 random probes
4,NRC3_wobSeed32_DR1_A9T_o1 (dsDNA) DNA 1: GCTCTTGTTGATCAAAGGTTAAGAAAGCCGAAGCCTGCGATTGACAGCGTAGAATGAAGG DNA 2: CCTTCATTCTACGCTGTCAATCGCAGGCTTCGGCTTTCTTAACCTTTGATCAACAAGAGC,4.28 PBM z-score against 500 random probes
5,NRC3_wobSeed34_DR1_T25C_o1 (dsDNA) DNA 1: GCATCGAAAGGTCGAAGGTGAGTACACCCACCCGAAGCGATTGACAGCGTAGAATGAAGG DNA 2: CCTTCATTCTACGCTGTCAATCGCTTCGGGTGGGTGTACTCACCTTCGACCTTTCGATGC,4.49 PBM z-score against 500 random probes
6,NRC3_wobSeed27_DR1_A15G_o1 (dsDNA) DNA 1: GCACTCGGAGGACAGAGGTCAGAGCTACGCCAGTGAGCGATTGACAGCGTAGAATGAAGG DNA 2: CCTTCATTCTACGCTGTCAATCGCTCACTGGCGTAGCTCTGACCTCTGTCCTCCGAGTGC,4.56 PBM z-score against 500 random probes
7,NRC3_wobSeed7_DR0_A13T_o1 (dsDNA) DNA 1: GCTCATATAGGTTAAGGTGAAAGTCGAACGATATGAGCGATTGACAGCGTAGAATGAAGG DNA 2: CCTTCATTCTACGCTGTCAATCGCTCATATCGTTCGACTTTCACCTTAACCTATATGAGC,4.42 PBM z-score against 500 random probes
8,NRC3_wobSeed20_DR0_A9G_o1 (dsDNA) DNA 1: GCAGAATGGGGTTAAGATCAGGGAAACAGAATACATGCGATTGACAGCGTAGAATGAAGG DNA 2: CCTTCATTCTACGCTGTCAATCGCATGTATTCTGTTTCCCTGATCTTAACCCCATTCTGC,4.73 PBM z-score against 500 random probes
9,NRC3_wobSeed20_DR0_G4A_o1 (dsDNA) DNA 1: GCAAAATGAGGTTAAGATCAGGGAAACAGAATACATGCGATTGACAGCGTAGAATGAAGG DNA 2: CCTTCATTCTACGCTGTCAATCGCATGTATTCTGTTTCCCTGATCTTAACCTCATTTTGC,3.12 PBM z-score against 500 random probes
10,NRC3_wobSeed55_DR2_A15T_o1 (dsDNA) DNA 1: GCTCATATAGGTAATCAGGTGAAAGTCCGTAAGTTAGCGATTGACAGCGTAGAATGAAGG DNA 2: CCTTCATTCTACGCTGTCAATCGCTAACTTACGGACTTTCACCTGATTACCTATATGAGC,3.84 PBM z-score against 500 random probes
11,NRC3_wobSeed53_DR2_C15G_o1 (dsDNA) DNA 1: GCCCTTACGGGTCAGGAGGTTATAGCACGACGAGCGGCGATTGACAGCGTAGAATGAAGG DNA 2: CCTTCATTCTACGCTGTCAATCGCCGCTCGTCGTGCTATAACCTCCTGACCCGTAAGGGC,3.77 PBM z-score against 500 random probes
12,NRC3_wobSeed133_DR5_G17T_o1 (dsDNA) DNA 1: GCCGTCCAAGGTCAATTCTAGGTCAGTGAAAGCATTGCGATTGACAGCGTAGAATGAAGG DNA 2: CCTTCATTCTACGCTGTCAATCGCAATGCTTTCACTGACCTAGAATTGACCTTGGACGGC,4.21 PBM z-score against 500 random probes
13,NRC3_wobSeed133_DR5_G22C_o1 (dsDNA) DNA 1: GCCGTCCAAGGTCAATGCTAGCTCAGTGAAAGCATTGCGATTGACAGCGTAGAATGAAGG DNA 2: CCTTCATTCTACGCTGTCAATCGCAATGCTTTCACTGAGCTAGCATTGACCTTGGACGGC,3.28 PBM z-score against 500 random probes
14,NRC3_wobSeed133_DR5_C7G_o1 (dsDNA) DNA 1: GCCGTCGAAGGTCAATGCTAGGTCAGTGAAAGCATTGCGATTGACAGCGTAGAATGAAGG DNA 2: CCTTCATTCTACGCTGTCAATCGCAATGCTTTCACTGACCTAGCATTGACCTTCGACGGC,4.13 PBM z-score against 500 random probes
15,NRC3_wobSeed65_DR2_T6C_o1 (dsDNA) DNA 1: GCATACGTAGGTTATCGGGTCATTCAGTTTGCGCATGCGATTGACAGCGTAGAATGAAGG DNA 2: CCTTCATTCTACGCTGTCAATCGCATGCGCAAACTGAATGACCCGATAACCTACGTATGC,3.06 PBM z-score against 500 random probes
16,NRC3_wobSeed61_DR2_C21G_o1 (dsDNA) DNA 1: GCCGTCCAAGGTCAGCAGGTGAGTGAAAGCGACGTGGCGATTGACAGCGTAGAATGAAGG DNA 2: CCTTCATTCTACGCTGTCAATCGCCACGTCGCTTTCACTCACCTGCTGACCTTGGACGGC,3.18 PBM z-score against 500 random probes
17,NRC3_wobSeed85_DR3_A27T_o1 (dsDNA) DNA 1: GCCGTCCAAGGTCAGAGAGGTCAGTGTATGCCGAGTGCGATTGACAGCGTAGAATGAAGG DNA 2: CCTTCATTCTACGCTGTCAATCGCACTCGGCATACACTGACCTCTCTGACCTTGGACGGC,3.51 PBM z-score against 500 random probes
18,NRC3_wobSeed85_DR3_A28C_o1 (dsDNA) DNA 1: GCCGTCCAAGGTCAGAGAGGTCAGTGACTGCCGAGTGCGATTGACAGCGTAGAATGAAGG DNA 2: CCTTCATTCTACGCTGTCAATCGCACTCGGCAGTCACTGACCTCTCTGACCTTGGACGGC,3.39 PBM z-score against 500 random probes
19,NRC3_wobSeed46_DR1_G10A_o1 (dsDNA) DNA 1: GCTTACCAAAGTGAAAGGTCGTTGATGCACGCCTTGGCGATTGACAGCGTAGAATGAAGG DNA 2: CCTTCATTCTACGCTGTCAATCGCCAAGGCGTGCATCAACGACCTTTCACTTTGGTAAGC,3.7 PBM z-score against 500 random probes
20,NRC3_wobSeed74_DR3_A27G_o1 (dsDNA) DNA 1: GCTCTAGTTGGTCACGGAGGTCACACGCGACGGGTAGCGATTGACAGCGTAGAATGAAGG DNA 2: CCTTCATTCTACGCTGTCAATCGCTACCCGTCGCGTGTGACCTCCGTGACCAACTAGAGC,3.93 PBM z-score against 500 random probes
21,NRC3_wobSeed79_DR3_C17A_o1 (dsDNA) DNA 1: GCTCATATAGGTAATAAAGGTGAAAGTCGGCATCTAGCGATTGACAGCGTAGAATGAAGG DNA 2: CCTTCATTCTACGCTGTCAATCGCTAGATGCCGACTTTCACCTTTATTACCTATATGAGC,3.46 PBM z-score against 500 random probes
22,NRC3_wobSeed58_DR2_G18C_o1 (dsDNA) DNA 1: GCATCGAAAGGTCGTGACGTGAGTATACAGAAAGGCGCGATTGACAGCGTAGAATGAAGG DNA 2: CCTTCATTCTACGCTGTCAATCGCGCCTTTCTGTATACTCACGTCACGACCTTTCGATGC,3.63 PBM z-score against 500 random probes
23,NRC3_wobSeed141_DR5_G22A_o1 (dsDNA) DNA 1: GCAGTCAAAGTTCAGGACGAGATAACGTAAAGCACGGCGATTGACAGCGTAGAATGAAGG DNA 2: CCTTCATTCTACGCTGTCAATCGCCGTGCTTTACGTTATCTCGTCCTGAACTTTGACTGC,4.64 PBM z-score against 500 random probes
24,NRC3_wobSeed138_DR5_A6T_o1 (dsDNA) DNA 1: GCGATTCAGGGTCAGCTAGAGGCCAGAGTATGGAAAGCGATTGACAGCGTAGAATGAAGG DNA 2: CCTTCATTCTACGCTGTCAATCGCTTTCCATACTCTGGCCTCTAGCTGACCCTGAATCGC,4.08 PBM z-score against 500 random probes
